# T1: AfAgo (Archaeoglobus fulgidus DSM 4304, UniProt O28951 1-427)
# T1 sequence: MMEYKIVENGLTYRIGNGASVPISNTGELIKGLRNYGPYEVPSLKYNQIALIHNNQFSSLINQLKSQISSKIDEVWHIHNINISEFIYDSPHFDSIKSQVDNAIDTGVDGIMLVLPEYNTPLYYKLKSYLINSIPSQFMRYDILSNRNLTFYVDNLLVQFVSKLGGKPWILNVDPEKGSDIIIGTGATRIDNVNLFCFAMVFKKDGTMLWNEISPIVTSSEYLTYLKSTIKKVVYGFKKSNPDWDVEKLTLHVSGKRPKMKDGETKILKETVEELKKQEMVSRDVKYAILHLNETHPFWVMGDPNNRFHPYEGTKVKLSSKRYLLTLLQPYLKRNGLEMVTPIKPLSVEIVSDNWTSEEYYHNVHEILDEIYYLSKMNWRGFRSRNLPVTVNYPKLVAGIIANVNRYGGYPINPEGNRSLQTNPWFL
# B1: MZ-1289 5'-ATT oligoduplex (dsDNA)
# DNA 1: ATTGTACGTACAAT
# DNA 2: ATTGTACGTACAAT
# modifications: 5'-phosphate
# B2: MZ-1480/MZ-1455 RNA/DNA heteroduplex (DNA:RNA)
# RNA: AUUGUACACGGCCGAAU
# DNA: ATTCGGCCGTGTACAAT
# modifications: 5'-phosphate
# B3: MZ-1480/MZ-1481 dsRNA (dsRNA)
# RNA 1: AUUGUACACGGCCGAAU
# RNA 2: AUUCGGCCGUGUACAAU
# modifications: 5'-phosphate
# B4: MZ-1288 5'-ATT oligoduplex (dsDNA)
# DNA 1: ATTGTGGCCACAAT
# DNA 2: ATTGTGGCCACAAT
# modifications: 5'-phosphate
# B5: gRNA MZ-1480 + target RNA MZ-1556 (8 nt) (dsRNA)
# RNA 1: AUUGUACACGGCCGAAU
# RNA 2: CGGAAUAUAUGUACAAU
# modifications: 5'-phosphate
# B6: MZ-952 5'-ATC oligoduplex (dsDNA)
# DNA 1: ATCGTGGCCACGAT
# DNA 2: ATCGTGGCCACGAT
# modifications: 5'-phosphate
# B7: MZ-1447/MZ-1455 dsDNA (dsDNA)
# DNA 1: ATTGTACACGGCCGAAT
# DNA 2: ATTCGGCCGTGTACAAT
# modifications: 5'-phosphate
# B8: gRNA MZ-1480 + target DNA MZ-1560 (8 nt) (DNA:RNA)
# RNA: AUUGUACACGGCCGAAU
# DNA: CGGAATATATGTACAAT
# modifications: 5'-phosphate
# B9: Archaeoglobus fulgidus Argonaute protein (AfAgo) (natural protein, Archaeoglobus fulgidus DSM 4304)
# chain: T1 sequence
# notes: AfAgo, hypothetical protein from Archaeoglobus fulgidus DSM 4304, GenBank NP_070147.1, cloned in pETDuet-1; also called AfPIWI; Af1318; source: E. coli, purified (Ni2+ HiTrap chelating, RNase A/T1 treatment, HiTrap Heparin, Superdex 200)
# Experiments:
# AfAgo [1] = target: T1, AfAgo; assay: EMSA; EMSA: 40 mM Tris-acetate pH 8.4 (25 C), 1 mM EDTA, 100 mM K-acetate, 0.1 mg/ml BSA, 1 mM DTT, 10% glycerol; 5 nM NA (1 nM 32P + 4 nM cold); 10 min at 25 C; conditions: protein: recombinant; tags: N-terminal His (HisTrap; construct name NHis-Af1318); label: 5'-32P
# AfAgo [2] = target: T1, AfAgo; assay: X-ray crystallography; 5 mM Mg2+ in complex preparation; EMSA: 40 mM Tris-acetate pH 8.4 (25 C), 1 mM EDTA, 100 mM K-acetate, 0.1 mg/ml BSA, 1 mM DTT, 10% glycerol; 5 nM NA (1 nM 32P + 4 nM cold); 10 min at 25 C; conditions: protein: recombinant; tags: N-terminal His (HisTrap; construct name NHis-Af1318); blunt, self-complementary, 2 strand copies
# AfAgo [3] = target: T1, AfAgo; assay: EMSA; pre-formed duplex; EMSA: 40 mM Tris-acetate pH 8.4 (25 C), 1 mM EDTA, 100 mM K-acetate, 0.1 mg/ml BSA, 1 mM DTT, 10% glycerol; 5 nM NA (1 nM 32P + 4 nM cold); 10 min at 25 C; conditions: protein: recombinant; tags: N-terminal His (HisTrap; construct name NHis-Af1318); label: 5'-32P; blunt
# AfAgo [4] = target: T1, AfAgo; assay: X-ray crystallography; Mg2+; EMSA: 40 mM Tris-acetate pH 8.4 (25 C), 1 mM EDTA, 100 mM K-acetate, 0.1 mg/ml BSA, 1 mM DTT, 10% glycerol; 5 nM NA (1 nM 32P + 4 nM cold); 10 min at 25 C; conditions: protein: recombinant; tags: N-terminal His (HisTrap; construct name NHis-Af1318); blunt, self-complementary, 2 strand copies
# AfAgo [5] = target: T1, AfAgo; assay: EMSA; AfAgo pre-loaded with gRNA (1:2), target titrated; no heparin; EMSA: 40 mM Tris-acetate pH 8.4 (25 C), 1 mM EDTA, 100 mM K-acetate, 0.1 mg/ml BSA, 1 mM DTT, 10% glycerol; 5 nM NA (1 nM 32P + 4 nM cold); 10 min at 25 C; conditions: protein: recombinant; tags: N-terminal His (HisTrap; construct name NHis-Af1318); label: 5'-32P on target; guide nt 1-8 complementary to target 3' end; rest largely unpaired
# [6] = target: the molecule itself; assay: crystal structure; AfAgo-DNA oligoduplex complexes, 90-120 uM (as monomer), crystals grown at 4-8 °C; P1 crystals (5'P-ATC DNA) hold two DNA-bound subunits per asymmetric unit; in the P22(1)2(1) crystals (5'P-ATT DNA) the dimer is formed by a crystallographic symmetry operator
binder,measurement,setting,value
"CUUGUACACGGCCGAAG (ssRNA, 5'-phosphate) [MZ-1708 CUU ssRNA]",Kd,AfAgo [1],28 ± 2.7 nM
"AUCGUACACGGCCGGAU (ssRNA, 5'-phosphate) [MZ-1706 AUC ssRNA]",Kd,AfAgo [1],16 ± 2.1 nM
B1,binding result,AfAgo [2],binds
B2,Kd,AfAgo [3],6.1 ± 0.04 nM
B3,Kd,AfAgo [3],15 ± 0.9 nM
B4,binding result,AfAgo [4],binds
"AGUGUACACGGCCGACU (ssRNA, 5'-phosphate) [MZ-1707 AGU ssRNA]",Kd,AfAgo [1],84 ± 2.9 nM
"ATTGTACACGGCCGAAT (ssDNA, 5'-phosphate) [MZ-1447 ATT ssDNA]",Kd,AfAgo [1],236 ± 35 nM
B5,Kd,AfAgo [5],33 ± 4.2 nM
B6,binding result,AfAgo [2],binds
B7,Kd,AfAgo [3],37 ± 17 nM
"AUUGUACACGGCCGAAU (ssRNA, 5'-phosphate) [MZ-1480 5'P-AUU ssRNA]",Kd,AfAgo [1],3.8 ± 0.1 nM
B8,Kd,AfAgo [5],7.5 ± 0.4 nM
"GUUGUACACGGCCGAAC (ssRNA, 5'-phosphate) [MZ-1698 GUU ssRNA]",Kd,AfAgo [1],42 ± 2.1 nM
B9,binding result,[6],binds
"UUUGUACACGGCCGAAA (ssRNA, 5'-phosphate) [MZ-1699 UUU ssRNA]",Kd,AfAgo [1],15 ± 2.8 nM

# From PMC10104839, “Structural basis for sequence-specific recognition of guide and target strands by the Archaeoglobus fulgidus Argonaute protein” (Scientific Reports, 2023)
